# From the supplement of paper PMC11780869
# Tested on: Bacillus subtilis
# Assay: cleaved RNA product abundance (RNA/gDNA barcode ratio) relative to median wild-type variant (ratio to wild type); higher = more accumulation of the downstream cleavage product
# Conditions: cleavage site: cggR-gapA (positions -7 to +36 mutated)
# In short: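 Cleaved product abundance is expressed as the RNA:gDNA barcode ratio per construct, scaled to the median construct carrying the unmutated site. The constructs were barcoded, mutagenized RNase Y cleavage-site windows in truncated aprE or tetM reporter mRNAs integrated into the B. subtilis chromosome. Cultures grew in LB at 37°C from OD600 0.0003 to 0.3 before cleaved RNA was gel-selected and barcode-sequenced.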
# [1] = experiment (reporter, strain, medium): exp 4a: truncated aprE reporter, strain BJT201 with 2% xylose (RNase J1 expressed)
# [2] = experiment (reporter, strain, medium): exp 2b: truncated aprE reporter, strain BJT200
Sequence,cleaved RNA product abundance [1],cleaved RNA product abundance [2]
ACAGACGAAGGAGCCGCAAATAAGTTATTAAGGGGTGAATAATCCCTCAATATAAATATCTCTCACTTATTTAAA,0.273,
ACAGACGAAGGAGCCGCAAATAAGTTATTAAGGGTTGAATAATCCCTCAATATAAATATCTCTCACTTATTTAAA,0.423,0.425
ACAGACGAAGGAGCCGCAAATAAGTTATTAAGGTATGAATAAACCCTCAATATAAATATCTCTCACTTATTTAAA,,0.118
ACAGACGAAGGAGCCGCAAATAAGTTATTAAGGTATGAATAATCCCTCAATATAAATATCTCTCACTTATTTAAA,0.139,0.169
ACAGACGAAGGAGCCGCAAATAAGTTATTAAGGTATGAATAATCCCTCAATATAAATTTCTCTCACTTATTTAAA,0.159,
ACAGACGAAGGAGCCGCAAATAAGTTATTAAGGTTTGAATAATCCCTCAATATAAATATCTCTCACTTATTTAAA,0.0913,
ACAGACGAAGGAGCCGCAAATAAGTTATTAAGTGATGAATAATCCCTCAATATAAATATCTCTCACTTATTTAAA,0.107,0.109
ACAGACGAAGGAGCCGCAAATAAGTTATTAATGAATGAATAATCCCTCAATATAAATATCTCTCACTTATTTAAA,0.107,
ACAGACGAAGGAGCCGCAAATAAGTTATTAATGGATGAATAATCCCTCAATATAAATATCTCTCACTTATTTAAA,0.184,0.123
ACAGACGAAGGAGCCGCAAATAAGTTATTAATGGATGAATAATCCCTCATTATAAATATCTCTCACTTATTTAAA,0.135,
ACAGACGAAGGAGCCGCAAATAAGTTATTACGGGATGAATAATCCCTCAATATAAATATCTCTCACTTATTTAAA,0.36,
ACAGACGAAGGAGCCGCAAATAAGTTATTAGGGGATGAATAATCCCTCAATATAAATATCTCTCACTTATTTAAA,,0.603
ACAGACGAAGGAGCCGCAAATAAGTTATTATGGGATGAATAATCCCTCAATATAAATATCTCTCACTTATTTAAA,0.365,
ACAGACGAAGGAGCCGCAAATAAGTTATTATGGGATGAATAATCCCTCTATATAAATATCTCTCACTTATTTAAA,0.483,
ACAGACGAAGGAGCCGCAAATAAGTTATTCAGGGATGAATAATCCCTCAATATAAATATCTCTCACTTATTTAAA,1.09,
ACAGACGAAGGAGCCGCAAATAAGTTATTTAGGGATGAATAATCCCTCAATATAAATATCTCTCACTTATTTAAA,0.766,0.993
ACAGACGAAGGAGCCGCAAATAAGTTCTTAAGGGATGAATAATCCCTCAATATAAATATCTCTCACTTATTTAAA,0.258,0.148
ACAGACGAAGGAGCCGCAAATAAGTTGTTAAGGGATGAATAATCCCTCAATATAAATATCTCTCACTTATTTAAA,0.458,
ACAGACGAAGGAGCCGCAAATAAGTTTTTAAGGGATGAATAATCCCTCAATATAAATATCTCTCACTTATTTAAA,0.402,0.29
ACAGACGAAGGAGCCGCAAATAATTTATTAAGGGATGAATAATCCCTCAATATAAATATCTCTCACTTATTTAAA,0.591,0.866
ACAGACGAAGGAGCCGCAAATACGTTATTAAGGGATGAATAAACCCTCAATATAAATATCTCTCACTTATTTAAA,0.383,
ACAGACGAAGGAGCCGCAAATACGTTATTAAGGGATGAATAATCCCTCAATATAAATATCTCTCACTTATTTAAA,0.984,
ACAGACGAAGGAGCCGCAAATATGTTATTAAGGGATGAATAATCCCTCAATATAAATATCTCTCACTTATTTAAA,1.1,
ACAGACGAAGGAGCCGCAAATGAGTTATTAAAGGATGAATAATCCCTCAATATAAATATCTCTCACTTATTTAAA,,0.181

Sequence,cleaved RNA product abundance [1],cleaved RNA product abundance [2]
ACAGACGAAGGAGCCGCAAATGAGTTATTAAGGGATGAATAATCCCTCAATATAAATATCTCTCACTTATTTAAA,1.15,
ACAGACGAAGGAGCCGCAAATTAGTTATTAAGGGATGAAAAATCCCTCAATATAAATATCTCTCACTTATTTAAA,0.655,
ACAGACGAAGGAGCCGCAAATTAGTTATTAAGGGATGAATAATCCCTCAATATAAATATCTCTCACTTATTTAAA,0.919,
ACAGACGAAGGAGCCGCAAATTAGTTATTAAGGGATGAATAATCCCTCTATATAAATATCTCTCACTTATTTAAA,0.215,
ACAGACGAAGGAGCCGCAAATTAGTTATTAATGGATGAATAATCCCTCAATATAAATATCTCTCACTTATTTAAA,0.153,
ACAGACGAAGGAGCCGCAACAAAGTTATTAAGGGATGAATAATCCCTCAATATAAATATCTCTCACTTATTTAAA,0.8,
ACAGACGAAGGAGCCGCAACAAGTTATTAAGGGATGAATAATCCCTCAATATAAATATCTCTCACTTATTTAAAG,0.581,
ACAGACGAAGGAGCCGCAACGAAATTATTAAGGGATGAATAATCCCTCAATATAAATATCTCTCACTTATTTAAA,1.03,1.1
ACAGACGAAGGAGCCGCAACGAAGTAATTAAGGGATGAATAATCCCTCAATATAAATATCTCTCACTTATTTAAA,0.347,
ACAGACGAAGGAGCCGCAACGAAGTTAATAAGGGATGAATAATCCCTCAATATAAATATCTCTCACTTATTTAAA,,0.227
ACAGACGAAGGAGCCGCAACGAAGTTATAAAGGGATGAATAATCCCTCAATATAAATATCTCTCACTTATTTAAA,0.54,
ACAGACGAAGGAGCCGCAACGAAGTTATTAAAGGATGAATAATCCCTCAATATAAATATCTCTCACTTATTTAAA,0.213,
ACAGACGAAGGAGCCGCAACGAAGTTATTAACGGATGAATAATCCCTCAATATAAATATCTCTCACTTATTTAAA,0.155,
ACAGACGAAGGAGCCGCAACGAAGTTATTAAGAGATGAATAATCCCTCAATATAAATATCTCTCACTTATTTAAA,0.137,
ACAGACGAAGGAGCCGCAACGAAGTTATTAAGGAATAAATAATCCCTCAATATAAATATCTCTCACTTATTTAAA,0.0859,
ACAGACGAAGGAGCCGCAACGAAGTTATTAAGGAATGAATAATCCCTCAATATAAATATCTCTCACTTATTTAAA,0.126,0.116
ACAGACGAAGGAGCCGCAACGAAGTTATTAAGGGAAGAATAATCCCTCAATATAAATATCTCTCACTTATTTAAA,1.23,
ACAGACGAAGGAGCCGCAACGAAGTTATTAAGGGACGAATAATCCCTCAATATAAATATCTCTCACTTATTTAAA,0.585,
ACAGACGAAGGAGCCGCAACGAAGTTATTAAGGGATAAATAATCCCTCAATATAAATATCTCTCACTTATTTAAA,0.739,0.891
ACAGACGAAGGAGCCGCAACGAAGTTATTAAGGGATGAACAATCCCTCAATATAAATATCTCTCACTTATTTAAA,0.631,
ACAGACGAAGGAGCCGCAACGAAGTTATTAAGGGATGAATAAACCCTCAATATAAATATCTCTCACTTATTTAAA,0.538,
ACAGACGAAGGAGCCGCAACGAAGTTATTAAGGGATGAATAATACCTCAATATAAATATCTCTCACTTATTTAAA,0.18,0.111
ACAGACGAAGGAGCCGCAACGAAGTTATTAAGGGATGAATAATCCCTCAAAATAAATATCTCTCACTTATTTAAA,0.357,
